The target in experiment [1] is S-receptor-binding domain (RBD)-Fc of SARS-CoV-2 (SARS-CoV-2, UniProt P0DTC2). Kind of experiment: SPR. In general terms: Surface plasmon resonance follows binding to a sensor surface in real time, without labels.
Experiment [2] concerns the target angiotensin-converting enzyme 2 (UniProt Q9BYF1 18-805). Kind of experiment: SPR.

As usually defined, the koff is the first-order rate constant of dissociation. Low readings indicate slow dissociation, high ones fast dissociation.

Sequence of angiotensin-converting enzyme 2 (Q9BYF1 18-740): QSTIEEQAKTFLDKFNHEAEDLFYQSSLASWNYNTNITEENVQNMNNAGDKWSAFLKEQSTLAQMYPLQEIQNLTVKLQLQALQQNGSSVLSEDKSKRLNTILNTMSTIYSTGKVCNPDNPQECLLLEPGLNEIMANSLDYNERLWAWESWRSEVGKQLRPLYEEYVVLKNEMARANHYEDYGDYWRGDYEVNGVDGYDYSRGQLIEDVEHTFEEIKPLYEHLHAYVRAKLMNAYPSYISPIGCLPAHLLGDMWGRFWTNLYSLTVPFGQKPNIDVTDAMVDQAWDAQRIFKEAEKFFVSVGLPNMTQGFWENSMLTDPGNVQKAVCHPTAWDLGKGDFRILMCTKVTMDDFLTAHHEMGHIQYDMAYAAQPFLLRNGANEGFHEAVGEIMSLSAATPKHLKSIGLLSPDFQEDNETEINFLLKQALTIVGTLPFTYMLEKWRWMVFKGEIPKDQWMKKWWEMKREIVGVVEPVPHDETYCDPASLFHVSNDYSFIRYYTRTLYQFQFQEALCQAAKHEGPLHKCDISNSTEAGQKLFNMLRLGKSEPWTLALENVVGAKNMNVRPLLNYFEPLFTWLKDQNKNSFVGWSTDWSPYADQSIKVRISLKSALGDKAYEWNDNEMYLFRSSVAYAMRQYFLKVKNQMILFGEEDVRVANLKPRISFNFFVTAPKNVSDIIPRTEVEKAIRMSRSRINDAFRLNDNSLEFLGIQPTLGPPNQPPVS

Regarding VQWRIRVAVIRK [antibacterial peptide DP7], the koff in experiment [1] came out at 0.00501 s⁻¹; in experiment [2] it was 0.00918 s⁻¹.

Source of the values: PMC8012516 (2021).
